We go through one substance from patent publication US20080200416A1.

For assay [1], the target named is agonist MCC I-E^k complex (mouse) (UniProt G3UW40). Briefly: cell-based or functional assay.
Assay [2] has as its target antagonist MCC 99R I-E^k complex (mouse) (UniProt P04224). Briefly: cell-based or functional assay.

Chain of antagonist MCC 99R I-E^k complex (mouse) (P04224 26-216, one chain of several): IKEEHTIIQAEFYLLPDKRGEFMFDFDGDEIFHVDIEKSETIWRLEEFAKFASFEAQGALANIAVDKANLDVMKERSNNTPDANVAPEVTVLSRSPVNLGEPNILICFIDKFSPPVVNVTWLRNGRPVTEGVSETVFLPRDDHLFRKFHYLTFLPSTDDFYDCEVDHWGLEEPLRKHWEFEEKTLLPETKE

In the case of 5C.C7 TCR, in assay [1], the half-maximal calcium response (EC50), control T cell blasts stood at 5 peptides and the half-maximal calcium response (EC50), miR-181a T cell blasts is 2 peptides. Also, the peak cytosolic calcium response, miR-181a T cell blasts in assay [2] was more than 2 fold.
